Values joined by “and” are separate entries in the source; they are usually repeats but may differ in a detail not shown here. Equal entries are not always repeated.
Target: MoFe-protein (molybdenum iron protein of the MoFe-nitrogenase) from Azotobacter vinelandii (Azotobacter vinelandii) (UniProt P07328)
Experiment: cryo-EM structure

Sequence of UniProt P07328 (P07328 whole entry, chain 1 of 2): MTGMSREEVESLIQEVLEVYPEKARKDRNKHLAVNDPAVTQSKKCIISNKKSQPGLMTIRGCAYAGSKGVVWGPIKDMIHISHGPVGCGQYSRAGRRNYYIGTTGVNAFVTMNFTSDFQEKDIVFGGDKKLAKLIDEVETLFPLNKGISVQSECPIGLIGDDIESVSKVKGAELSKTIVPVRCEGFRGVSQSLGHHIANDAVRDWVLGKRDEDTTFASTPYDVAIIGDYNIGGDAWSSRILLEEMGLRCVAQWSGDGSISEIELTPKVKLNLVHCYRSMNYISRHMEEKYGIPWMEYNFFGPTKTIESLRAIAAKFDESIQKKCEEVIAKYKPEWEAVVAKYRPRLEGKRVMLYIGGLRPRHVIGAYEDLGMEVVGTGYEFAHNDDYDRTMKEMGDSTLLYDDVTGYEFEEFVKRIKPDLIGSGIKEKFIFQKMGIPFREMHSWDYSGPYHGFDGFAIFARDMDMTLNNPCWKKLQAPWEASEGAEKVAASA
Sequence of UniProt P07328 (P07329 whole entry, chain 2 of 2, further chain): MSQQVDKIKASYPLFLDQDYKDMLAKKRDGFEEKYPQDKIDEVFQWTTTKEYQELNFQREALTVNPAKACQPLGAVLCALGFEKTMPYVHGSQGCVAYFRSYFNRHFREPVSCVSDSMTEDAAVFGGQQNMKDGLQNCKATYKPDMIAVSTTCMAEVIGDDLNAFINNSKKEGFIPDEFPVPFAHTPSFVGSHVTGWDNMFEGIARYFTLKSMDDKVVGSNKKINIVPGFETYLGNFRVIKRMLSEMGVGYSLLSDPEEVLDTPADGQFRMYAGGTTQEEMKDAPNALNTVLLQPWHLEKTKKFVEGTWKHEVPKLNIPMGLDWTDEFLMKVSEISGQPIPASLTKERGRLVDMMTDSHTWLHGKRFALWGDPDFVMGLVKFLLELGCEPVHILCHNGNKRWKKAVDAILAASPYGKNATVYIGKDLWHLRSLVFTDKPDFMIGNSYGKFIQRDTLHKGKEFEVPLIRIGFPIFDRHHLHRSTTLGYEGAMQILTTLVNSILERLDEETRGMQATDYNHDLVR

stoichiometry N (Fe-protein per MoFe-protein): 2 and 1
Substance: Fe-protein (iron protein of the MoFe-nitrogenase) from Azotobacter vinelandii (enzyme)

Source: publication doi:10.1101/2022.06.04.494841
